The source of these data is paper PMC3824618.

The target in the test is T1, wild-type human cystathionine β-synthase, HIS-tagged, expressed in HEK-293 cells (human), P35520.
T1 chain: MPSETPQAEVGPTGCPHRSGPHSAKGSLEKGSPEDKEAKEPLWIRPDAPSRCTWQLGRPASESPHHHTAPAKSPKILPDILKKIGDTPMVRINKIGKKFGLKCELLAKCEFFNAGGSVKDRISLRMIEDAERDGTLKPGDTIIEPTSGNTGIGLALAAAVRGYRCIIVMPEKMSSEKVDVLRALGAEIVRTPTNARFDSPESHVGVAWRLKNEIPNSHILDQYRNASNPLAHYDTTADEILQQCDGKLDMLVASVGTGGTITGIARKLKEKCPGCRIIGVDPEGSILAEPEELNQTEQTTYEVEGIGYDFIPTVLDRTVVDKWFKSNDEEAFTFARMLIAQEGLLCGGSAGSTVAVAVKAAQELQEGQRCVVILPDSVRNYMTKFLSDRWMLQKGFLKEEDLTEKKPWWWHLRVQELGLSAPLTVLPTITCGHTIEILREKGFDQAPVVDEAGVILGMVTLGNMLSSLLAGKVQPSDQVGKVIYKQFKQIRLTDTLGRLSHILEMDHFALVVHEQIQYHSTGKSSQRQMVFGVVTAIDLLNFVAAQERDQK
As to the kind of experiment: native gel or EMSA. Conditions: remark: other sources report otherwise.

B1: wild-type human cystathionine β-synthase, HIS-tagged, expressed in HEK-293 cells, P35520 1-551 (enzyme)
chain: T1 chain
Consider B1, for which the stoichiometry N amounted to 4.
